Results published in US20260193363A1.

Experiments:
[1] = target: EGFR loop peptide, His-tagged (EGFRlp-HIS) (human); test: BLI (Octet Red96), His-tagged antigen on Ni-NTA biosensors, antibody in solution, 30 C
[2] = target: EGFR and EGFRvIII on GBM39 cells (patient derived xenograft glioblastoma line); test: flow cytometry on GBM39 cells, antibody at 2 µg/ml
[3] = target: EGFR and EGFRvIII on GBM39 cells (patient derived xenograft glioblastoma line); test: flow cytometry on GBM39 cells, antibody at 20 µg/ml
[4] = target: EGFR and EGFRvIII on GBM39 cells (patient derived xenograft glioblastoma line); test: flow cytometry on GBM39 cells, antibody at 0.2 µg/ml
[5] = target: EGFR loop peptide, His-tagged (EGFRlp-HIS) (human); test: BLI (Octet Red96), His-tagged antigen on Ni-NTA biosensors, conjugate in solution, 30 C
[6] = target: EGFRvIII on F98npEGFRvIII cells (rat glioma F98 transfected with nonphosphorylated EGFRvIII); test: flow cytometry, antibodies added at 2 µg/ml, F98-npEGFRvIII cells

B1: monoclonal antibody 40H3 (antibody, V domains shown)
VH: QVQLKQSGPGLVQPSQSLSITCTVSGFSLTNYGIHWLRQSPGKGLEWLGMMWRGGGTDYNAAFISRLTITKDTSKSQVFFRMNNLQTNDTAIYYCARKGVGMGLGYWGQGTSVTVSS
VL: DIQMTQSPASQSASLGESVTITCLASQTIGTWVAWYQQKPGRSPQLLIYGATNLADGVPSRFSGSGSGTKFSFKISSLQAEDFVSYYCQQLYSNPYTFGGGTKLEIK
[1]
  Kd: 1.11 nM
  koff: 6.07e-05 s⁻¹
  kon: 54900 M⁻¹ s⁻¹
[2]
  median fluorescent intensity: 10700
[3]
  median fluorescent intensity: 8600
[4]
  median fluorescent intensity: 9450

B2: 40H3 MMAE antibody drug conjugate (antibody, V domains shown)
VH: QVQLKQSGPGLVQPSQSLSITCTVSGFSLTNYGIHWLRQSPGKGLEWLGMMWRGGGTDYNAAFISRLTITKDTSKSQVFFRMNNLQTNDTAIYYCARKGVGMGLGYWGQGTSVTVSS
VL: DIQMTQSPASQSASLGESVTITCLASQTIGTWVAWYQQKPGRSPQLLIYGATNLADGVPSRFSGSGSGTKFSFKISSLQAEDFVSYYCQQLYSNPYTFGGGTKLEIK
[5]
  Kd: 0.0846 nM
  koff: 2.24e-05 s⁻¹
  kon: 265000 M⁻¹ s⁻¹

B3: 40H3 DM1 antibody drug conjugate (antibody, V domains shown)
VH: QVQLKQSGPGLVQPSQSLSITCTVSGFSLTNYGIHWLRQSPGKGLEWLGMMWRGGGTDYNAAFISRLTITKDTSKSQVFFRMNNLQTNDTAIYYCARKGVGMGLGYWGQGTSVTVSS
VL: DIQMTQSPASQSASLGESVTITCLASQTIGTWVAWYQQKPGRSPQLLIYGATNLADGVPSRFSGSGSGTKFSFKISSLQAEDFVSYYCQQLYSNPYTFGGGTKLEIK
[5]
  Kd: 0.442 nM
  koff: 8.95e-05 s⁻¹
  kon: 202000 M⁻¹ s⁻¹

B4: monoclonal antibody 11G3 (antibody, V domains shown)
VH: QVQLKQSGPSLVQPSQSLSITCTVSGFSLTNYGVHWVRQSPGKGLEWLGVMWRGGRTDYNAAFMSRLSITKDNSRSQVFFKMNSLQTDDAAIYYCAKNGPFGNFAGYWGQGTLVTVST
VL: DIVMSQSPSSLPVSVGEKVSLTCKSSRSLLDNQKHYLAWYQQKPGQSPKLLIYWASTRESGVPDRFTGSGSGTEFTLTISSVKAEDLAVYYCQQFYNYPYTFGGGTKLEIK
[6]
  Median : PE-A: 1080
